Publication PMC6783867

Target: 10th and 11th cadherin repeat domains of the Plutella xylostella cadherin (PxCR10–11), GST-tagged (Plutella xylostella)
Assay: BLI; Octet Red 96; GST-tagged PxCR10–11 loaded onto anti-GST biosensors; toxin 38.5 to 576.9 nM in solution; 400 s association, 400 s dissociation; 10 mM GSH, 50 mM Tris, pH 8.0; 1:1 binding model

| Substance | Kd [nM] |
| --- | --- |
| Cry2Ab–AVM bioconjugate (Cry2Ab30 conjugated with 4''-O-succinyl avermectin) | 3.44 |
| Cry2Ab–AVMd (Cry2Ab30 conjugated with 4'',5-O-succinyl avermectin) | 71.9 |
